For this assay, the target named is GFP-tagged IQGAP1 lacking IQ domains (IQGAPΔIQ) (UniProt P46940). Briefly: co-IP.
Chain of UniProt P46940 (P46940 whole entry, stated change not applied, the tested form may be a part): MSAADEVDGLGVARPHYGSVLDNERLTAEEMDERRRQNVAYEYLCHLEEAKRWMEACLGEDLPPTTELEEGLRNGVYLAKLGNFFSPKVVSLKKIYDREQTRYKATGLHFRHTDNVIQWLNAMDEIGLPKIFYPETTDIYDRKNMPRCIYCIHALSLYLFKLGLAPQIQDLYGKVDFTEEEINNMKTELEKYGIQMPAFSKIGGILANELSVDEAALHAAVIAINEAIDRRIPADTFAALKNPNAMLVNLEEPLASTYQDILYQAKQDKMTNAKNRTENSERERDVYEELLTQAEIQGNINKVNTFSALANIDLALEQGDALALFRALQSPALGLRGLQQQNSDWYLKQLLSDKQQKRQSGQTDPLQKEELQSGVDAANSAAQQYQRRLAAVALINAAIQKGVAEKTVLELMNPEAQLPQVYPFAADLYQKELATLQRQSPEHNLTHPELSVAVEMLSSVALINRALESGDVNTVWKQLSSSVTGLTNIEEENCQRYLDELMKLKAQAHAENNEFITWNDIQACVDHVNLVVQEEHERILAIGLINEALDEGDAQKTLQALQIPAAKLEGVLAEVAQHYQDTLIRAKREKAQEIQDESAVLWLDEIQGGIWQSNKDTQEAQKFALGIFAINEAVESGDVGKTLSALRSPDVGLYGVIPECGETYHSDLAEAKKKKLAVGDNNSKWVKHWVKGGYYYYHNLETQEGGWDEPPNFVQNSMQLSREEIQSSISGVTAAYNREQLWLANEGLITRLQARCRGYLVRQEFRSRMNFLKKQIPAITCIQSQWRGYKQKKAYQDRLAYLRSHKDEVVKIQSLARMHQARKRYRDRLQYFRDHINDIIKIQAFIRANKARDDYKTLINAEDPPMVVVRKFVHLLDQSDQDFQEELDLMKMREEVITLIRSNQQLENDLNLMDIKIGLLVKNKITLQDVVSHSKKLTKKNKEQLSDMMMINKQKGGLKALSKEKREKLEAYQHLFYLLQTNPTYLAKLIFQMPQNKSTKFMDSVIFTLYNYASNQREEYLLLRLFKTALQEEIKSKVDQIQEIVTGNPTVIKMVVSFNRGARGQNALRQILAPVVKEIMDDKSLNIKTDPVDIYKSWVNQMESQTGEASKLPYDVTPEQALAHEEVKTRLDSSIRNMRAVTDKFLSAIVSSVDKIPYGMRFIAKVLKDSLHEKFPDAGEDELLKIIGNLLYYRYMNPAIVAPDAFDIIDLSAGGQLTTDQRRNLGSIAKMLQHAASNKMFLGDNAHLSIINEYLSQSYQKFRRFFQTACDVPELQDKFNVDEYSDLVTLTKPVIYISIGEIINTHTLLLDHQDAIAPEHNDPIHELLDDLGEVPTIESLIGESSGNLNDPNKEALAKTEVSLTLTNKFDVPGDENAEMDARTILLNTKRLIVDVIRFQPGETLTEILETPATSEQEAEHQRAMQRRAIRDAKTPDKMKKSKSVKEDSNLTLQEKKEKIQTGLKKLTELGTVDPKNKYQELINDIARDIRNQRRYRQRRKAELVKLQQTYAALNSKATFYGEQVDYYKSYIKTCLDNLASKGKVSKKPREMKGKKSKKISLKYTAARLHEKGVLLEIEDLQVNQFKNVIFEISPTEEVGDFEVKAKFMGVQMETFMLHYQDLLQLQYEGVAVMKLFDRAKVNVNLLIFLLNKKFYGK

As for “AKAP220, endogenous in COS cells (natural protein)”, the fold enhancement in binding (densitometry) came out at 3.6 fold.

The record behind these values is PMC3234751.
